{
  "source": "patent US12228567B2",
  "about": "“Colorimetric sensor kit for screening therapeutic agent for neurodegenerative disease, including amyloid shelled-gold nanoparticle, and method for screening therapeutic agent for neurodegenerative disease” (Korea University Research and Business Foundation, priority 2019, dated 2025)",
  "key": {"[1]": {"target": "Aβ(1-40) (Homo sapiens, UniProt P05067)", "sequence (P05067 672-711 limits assumed)": "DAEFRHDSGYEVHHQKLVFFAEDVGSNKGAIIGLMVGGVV", "assay": "Degradation activity of MMP-9 for the amyloid-gold nanoparticle, Aβ(1-40)", "type": "biochemical", "settings": "ASGN made with Aβ(1-40)", "description": "(§1) For investigation of the reactivity of the Amyloid Shelled-Gold Nanoparticle (ASGN), the reactivity of the amyloid-gold nanoparticle with amyloid-degrading proteases (protease XIV and matrix metallopeptidase 9 (MMP-9)) was investigated. As a result, it was confirmed that the composite of the present disclosure can be used not only for drug screening but also for investigation of the activity of an amyloid-degrading enzyme.\n(§2) Therefore, MMP-9 degrades and removes Aβ(1-42) in the Golgi apparatus and the cytoplasm in the neurons of the brain."}, "[2]": {"target": "T1, Aβ(1-42) (Homo sapiens, UniProt P05067)", "T1 construct": "can degrade Aβ(1-42)", "T1 sequence (P05067 672-713 limits assumed)": "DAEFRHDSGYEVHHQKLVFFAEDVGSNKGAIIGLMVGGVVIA", "assay": "Degradation activity of MMP-9 for the amyloid-gold nanoparticle, Aβ(1-42)", "type": "biochemical", "settings": "ASGN made with Aβ(1-42)", "description": "as §1, §2"}},
  "data": [
    {"substance": "matrix metallopeptidase 9 [MMP-9]", "values": [
      {"measurement": "degradation of Aβ(1-40) on the amyloid-gold nanoparticle", "setting": "[1]", "result": "cannot degrade"},
      {"measurement": "degradation of Aβ(1-42) on the amyloid-gold nanoparticle", "setting": "[2]", "result": "specifically degrades Aβ(1-42) only"}
    ]}
  ]
}
